How the values were obtained:
TNFα, biotinylated form = target: T1, TNFα, biotinylated form (human, UniProt P01375 77-233, biotinylated); test: biotinylated TNFα staining normalized to HA staining
T1 construct: also called biotinylated human TNF-α; Bt-TNF-α

p60ΔCD-GFP-HA = target: T2, p60ΔCD-GFP-HA (UniProt P42212 1-238 = GFP, limits assumed); test: co-immunoprecipitation in 293T transient transfections
T2 construct: GFP introduced in-frame into p60ΔCD-HA; p60 limits deduced as for p60ΔCD-HA; also called chimeric p60 receptor with the cytoplasmic domain replaced by GFP
Experimental: The PCR product was digested with BamHI and EcoRI and cloned into pcDNA3. The PCR fragments containing the receptor fragments were then introduced into this plasmid using the EcoRI and XhoI sites. For the GFP/CFP/YFP chimeras, the fragments were amplified by PCR and introduced in-frame into the XhoI and XbaI sites of p60ΔCD-HA. 293T cells were transfected with Fugene 6 (Boehringer Mannheim) as per manufacturer's protocol. Cells were lysed in 150 mM NaCl, 20 mM Tris.Cl [pH 7.5], 1 mM EDTA, 30 mM NaF, 2 mM β-glycerophosphate, 1 mM sodium orthovanadate, 5 mM iodoacetamide, 2 mM dithiothreitol (DTT), 1% TRITON X-100 and protease inhibitors (Boehringer Mannheim). After pre-clearing with protein G agarose beads (Boehringer Mannheim) and normal mouse IgG, proteins were immunoprecipitated from the lysates with […] anti-GFP and protein G agarose beads. Immune complexes were washed twice with lysis buffer containing 0.5 M NaCl and then three times with regular lysis buffer. Immune-complexes were resolved on Tris/Glycine gels (Novex).

T1 sequence (P01375 77-233 limits assumed): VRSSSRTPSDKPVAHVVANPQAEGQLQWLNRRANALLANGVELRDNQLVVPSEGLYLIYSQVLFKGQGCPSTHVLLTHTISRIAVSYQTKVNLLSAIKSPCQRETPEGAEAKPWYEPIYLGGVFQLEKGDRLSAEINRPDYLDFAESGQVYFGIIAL

B1: p60ΔCD-HA K32A (receptor, not shown: small tags and cut ends)
chain: LVPHLGDREKRDSVCPQGKYIHPQNNSICCTACHKGTYLYNDCPGPGQDTDCRECESGSFTASENHLRHCLSCSKCRKEMGQVEISSCTVDRDTVCGCRKNQYRHYWSENLFQCFNCSLCLNGTVHLSCQEKQNTVCTCHAGFFLRENECVSCSNCKKSLECTKLCLPQIENVKGTEDSGTTVLLPLVIFFGLCLLSLLFIGLMYRYQRWK
notes: Mutant of p60ΔCD-HA; numbers count on mature p60
- binding result (TNFα, biotinylated form): no binding
- binding result (p60ΔCD-GFP-HA): no binding

From US20100041596A1 (published 2010)
